Results taken from patent publication US10709762B2, “Use of M-CSF for preventing or treating myeloid cytopenia and related complications” (priority 2013, dated 2020).

Experiments:
[1] = system: PU.1 in HSC of PU.1-GFP reporter mice; assay: PU.1-GFP reporter activation in HSC after in vivo injection (FACS)
Description: (§1) CD45.1 and C57Bl/6 mice were obtained from Charles River. PU.1-GFP^31 M-CSFR^−/−27 and PU.1^fl/fl 32 mice have been described. Age- and sex-matched CD45.1 recipients that were reconstituted as described^3 with CD45.2 foetal liver from wt or M-CSFR^−/− embryos^27 and PU.1^fl/fl or PU.1^fl/fl::MxCre bone marrow, were used to isolate CD150+CD34− KSLF HSC not earlier than 8 weeks after reconstitution. For in vivo injections the 10 μg/mouse M-CSF, 5 mg/kg LPS (055:B5 E. coli) or sorted cells were injected in 100 μl of PBS into the retro-orbital sinus. For HSC transplantation 400 CD150+CD34− KSLF HSC were sorted from CD45.2 mice and mixed with 100.000 Lin^+ Sca^− CD45.1 carrier cells prior to injection into sub-lethally irradiated (4.5 Gy) CD45.1 recipient mice. For competitive transplantations, 1300 CD150+, CD34-KSLF HSC were isolated 16 h after control or 10 μg M-CSF injection from actin-GFP CD45.2 mice^33, mixed with equal numbers of CD45.2 competitor HSC and injected with 300.000 Lin^+ Sca^− RC-lysed CD45.1 carrier cells into sub-lethally irradiated (4.5 Gy) CD45.1 recipients. Contribution to platelets, CD19+ B-cells and CD11b+ myeloid cells was analysed after 4 and 6 weeks in the blood from mice with at least 5% GFP+ donor cells. For PU.1 deletion PU.1^fl/fl or PU.1^fl/fl::MxCre reconstituted mice were intra-peritoneally injected with 5 μg/g Polyinosinic:polycytidylic acid 7 and 9 days prior to control (PBS) or 10 μg M-CSF injection. All mouse experiments were performed under specific pathogen-free conditions in accordance with institutional guidelines.
(§2) For FACS sorting and analysis we used described staining protocols^3 and published stem and progenitor cell definitions^34, FACSCANTO™ BD™ LSRII and FACSARIA™ III equipment and DIVA™ software (BECTON-DICKINSON), analysing only populations with at least 200 events. For HSC analysis we used antibodies anti-CD34-FITC (clone RAM34, BD BIOSCIENCES), anti-CD135-PE (clone A2F10.1, BD BIOSCIENCES), anti-CD150-Pe-Cy7 (clone TC15-12F12.2, BIOLEGEND), anti-CD117-APC H7 (clone 2B8, BD BIOSCIENCES), anti-Sca-1-Pe-Cy5 (clone D7, BIOLEGEND), anti-CD48-APC (clone HM48-1, BIOLEGEND). Diverging from this or in addition we used antibodies anti-CD34 Alexa 700 (clone RAM34, BD BIOSCIENCES), anti-CD16/32 PE (clone 2.4G2, BD BIOSCIENCES), anti-CD11b PE-CF594 (clone M1/70, BD BIOSCIENCES), anti-CD19PE-Cy7 (clone 1D3, BD biosciences), anti CD45.2 APC (clone 104, BD BIOSCIENCES) and anti CD45.1 Pacific Blue (clone A20, BD BIOSCIENCES) for progenitor and blood cell analysis. LIVE/DEAD Fixable Violet Dead cell dye (Invitrogen) was used as viability marker.

[2] = system: single HSC; assay: Single cell gene expression profiling of HSC (nanofluidic real time PCR); format: cell-based, mice; details: 16 h culture in the presence of M-CSF
Description: CD150+CD34− KSLF HSC or CD150+CD34− CD48− KSLF HSC (single cells) were sorted into S-clone SF-03 medium (Sanko Jyunyaku) with 10% FBS supplemented with 100 U/ml penicillin and […] streptomycin (both Invitrogen) and cultivated in uncoated U-Shape 96 well plates (Greiner) in 100 μl SCM, 20 ng/ml rSCF, 50 ng/ml rTPO+/−100 ng/ml rM-CSF or 100 ng/ml rGM-CSF or 100 ng/ml rG-CSF. All cytokines were murine and from PeproTech. Cell viability was analyzed by AnnexinV and Propidium iodide FACS staining^35.
Single cells were sorted using the autoclone module on a FACSARIA™ III sorter (Becton-Dickinson) directly into 96 wells plate in the CELLS DIRECT™ Reaction Mix (Invitrogen). Individual cell lysis, cDNA synthesis and amplification was performed according to FLUIDIGM Advanced Development Protocol and single cell microfluidic real time PCR using Dynamic Array IFCs (BIOMARK™ FLUIDIGM) was performed by a trained technician of FLUIDIGM Inc. Preamplified products (22 cycles) were diluted 5-fold prior to analysis with Universal PCR Master Mix and inventoried TAQMAN® gene expression assays (ABI) in 96.96 DYNAMIC ARRAY™ on a BIOMARK™ system (FLUIDIGM). Ct values were calculated from the system's software (BIOMARK™ Real-time PCR Analysis; FLUIDIGM) and filtered according to a set of quality control rules outlined below.

[3] = system: HSC; assay: Transplantation of M-CSF primed HSC into sub-lethally irradiated recipients, analysis of progeny; format: in vivo, mice
Description: as §1, §2

[4] = system: HSC; assay: Competitive transplantation of M-CSF primed HSC, blood cell contribution; format: in vivo
Description: as §1

B1: M-CSF: recombinant murine macrophage colony stimulating factor from PeproTech, used in Example 1 (protein, UniProt P07141 33-552, looked up)
Macrophage colony-stimulating …: KEVSEHCSHMIGNGHLKVLQQLIDSQMETSCQIAFEFVDQEQLDDPVCYLKKAFFLVQDIIDETMRFKDNTPNANATERLQELSNNLNSCFTKDYEEQNKACVRTFHETPLQLLEKIKNFFNETKNLLEKDWNIFTKNCNNSFAKCSSRDVVTKPDCNCLYPKATPSSDPASASPHQPPAPSMAPLAGLAWDDSQRTEGSSLLPSELPLRIEDPGSAKQRPPRSTCQTLESTEQPNHGDRLTEDSQPHPSAGGPVPGVEDILESSLGTNWVLEEASGEASEGFLTQEAKFSPSTPVGGSIQAETDRPRALSASPFPKSTEDQKPVDITDRPLTEVNPMRPIGQTQNNTPEKTDGTSTLREDHQEPGSPHIATPNPQRVSNSATPVAQLLLPKSHSWGIVLPLGELEGKRSTRDRRSPAELEGGSASEGAARPVARFNSIPLTDTGHVEQHEGSSDPQIPESVFHLLVPGIILVLLTVGGLLFYKWKWRSHRDPQTLDSSVGRPEDSSLTQDEDRQVELPV
In the case of B1, the “PU.1 activation in CD150hi HSC compared with total HSC” value ([1]; 16 h after injection) is reported as “activated PU.1 to a similar extent”, the “change in M-CSFR or MafB expression” value ([1]; HSC after M-CSF injection) is reported as “no significant change” and the “PU.1 activation in HSC” value ([1]; PU.1-GFP reporter mice, direct intravenous injection, after 16 h) is reported as “significantly increased PU.1 activation”. For the same molecule, the “change in the proportion of CD150hi HSC” value ([1]; in GFP-positive or -negative HSC) was “no change”, the “cells with a myeloid gene expression signature” value [2] was “strong increase” and the “number of PU.1+ cells” value [2] was “doubling”. The “myeloid differentiation preference of M-CSF primed HSC after deletion of PU.1” value ([3]; HSC with deleted PU.1 alleles, spleen 2 weeks) was “abolished”, the “ratio of GMP to MEP progenitors in the spleen” value ([3]; in vivo M-CSF primed CD45.2 HSC, after 2 weeks) was “increased ratio” and the “myeloid to lymphoid cell ratio in peripheral blood” value ([3]; in vivo M-CSF primed HSC, after 4 weeks) was “increased myeloid to lymphoid cell ratio”. The “ratio of GMP to MEP developing from PU.1+ HSC versus PU.1- HSC” value ([3]; in vivo priming with M-CSF, spleen 2 weeks after transplantation) was “higher ratio”, the long-term multi-lineage contribution [4] was “did not compromise” and the “myeloid contribution compared to platelet and lymphoid contribution in the blood” value ([4]; after 6 weeks) was “re-equilibrated”. For the same molecule, the “myeloid contribution compared to platelet and lymphoid contribution in the blood” value ([4]; at 4 weeks) was “myeloid advantage”.
